According to patent publication US20200255504A1 (VIB VZW, published 2020):
Changes are numbered by the printed parent chain. Where “and” joins values, the source holds several entries; their conditions need not be identical. Equal values may be shown once.

Assays:
rat serum albumin [1] = molecular target: T1, rat serum albumin (rat, UniProt P02770 25-608); assay: BLI Octet RED96, rat albumin, reference SA1_S30K
T1 construct: also called rat albumin

mouse serum albumin [2] = molecular target: T2, mouse serum albumin (mouse, UniProt P07724 25-608); assay: BLI Octet RED96, mouse albumin, reference SA1_S30K
T2 construct: also called mouse albumin

human serum albumin [3] = molecular target: T3, human serum albumin (human, UniProt P02768 25-609); assay: BLI off-rate screen, periplasmic extract 1/4 in PBS, HSA on AR2G sensors
T3 construct: also called HSA; human albumin
Method: (§1) Off-rate was analyzed by BioLayer Interferometry on an Octet RED96 (Fortebio) instrument using human serum albumin (HSA) coated Octet AR2G sensors (HSA was coupled at 20 μg/mL at pH 5.0 as detailed in Fortebio Technical Note 26).

human serum albumin [4] = molecular target: T3, human serum albumin; assay: BLI off-rate screen, periplasmic extract 1/4 in 75 mM NaAc pH 5.5, HSA on AR2G sensors
Method: as §1

human serum albumin [5] = molecular target: T3, human serum albumin; assay: BLI Octet RED96, HSA on AR2G sensors, VHH 100-1.5 nM
dog serum albumin = molecular target: T4, dog serum albumin (dog, UniProt P49822 25-608); assay: BLI Octet RED96, albumin on AR2G sensors, VHH 800-12.5 nM, 1:1 model
T4 construct: also called dog SA; dog albumin
Method: (§2) 10 mg of lyophilized cat, dog, horse or pig serum (HSA) albumin (Sigma) was resuspended in 1 mL of PBS (10 μg/μL). This was used at 20 μg/mL in the “Ligand scouting immobilization conditions” protocol for AR2G Biosensors as detailed in Fortebio Technical Note 26, in conjunction with a Fortebio Octet Red96 machine. Only the pH 5.0 and pH 4.0 condition were tested.
(§3) After data acquisition, the profiles were analyzed using the Octet Data analysis software v9.0.

horse serum albumin = molecular target: T5, horse serum albumin (horse, UniProt P35747 25-607); assay: as above
T5 construct: also called horse SA; horse albumin
Method: as §2, §3

bovine serum albumin = molecular target: T6, bovine serum albumin (bovine, UniProt P02769 25-607); assay: BLI Octet RED96, albumin on AR2G sensors
T6 construct: also called bovine albumin

rabbit serum albumin = molecular target: T7, rabbit serum albumin (rabbit, UniProt P49065 25-608); assay: BLI Octet RED96, albumin on AR2G sensors, VHH 1600-25 nM
T7 construct: also called rabbit albumin

pig serum albumin = molecular target: T8, pig serum albumin (pig, UniProt P08835 25-607); assay: BLI Octet RED96, albumin on AR2G sensors
T8 construct: also called pig SA
Method: as §2, §3

cat serum albumin = molecular target: T9, cat serum albumin (cat, UniProt P49064 25-608); assay: BLI Octet RED96, albumin on AR2G sensors
T9 construct: also called cat SA
Method: as §2, §3

[6] = molecular target: T10, cynomolgus monkey serum albumin (cynomolgus monkey); assay: BLI Octet RED96, albumin on AR2G sensors, VHH 100-1.5 nM
T10 construct: also called cyno albumin

mouse serum albumin [7] = molecular target: T2, mouse serum albumin; assay: as above
rat serum albumin [8] = molecular target: T1, rat serum albumin; assay: as above
human serum albumin [9] = molecular target: T3, human serum albumin; assay: as above
human serum albumin [10] = molecular target: T3, human serum albumin; assay: BLI Octet RED96, HSA on AR2G sensors, VHH 100-1.5 nM (column head says nM; values look like M)
[11] = molecular target: T10, cynomolgus monkey serum albumin; assay: BLI Octet RED96, albumin on AR2G sensors (as in Example 4)
human serum albumin [12] = molecular target: T3, human serum albumin; assay: as above
human serum albumin [13] = molecular target: T3, human serum albumin; assay: BLI Octet RED96, HSA on AR2G sensors
human serum albumin [14] = molecular target: T3, human serum albumin; assay: affinity determination, method not stated

B1: SA1 VHH (VHH)
VHH: QVQLQESGGGLVQAGGSLRLSCAASGRNISEYVMGWFRQAPGKEREFVAAISWSAGNIYYADSVKGRFTISRDNAKNTVHLQMNTLRPEDTAVYYCAAGRYSAWYVAAYEYDYWGQGTQVTVSS
notes: From WO2014/037419; made in E. coli WK6 periplasm; also called non-mutated SA1; original SA1 VHH
Rat serum albumin [1]
  fold lower affinity than SA1_S30K: 20 fold
Mouse serum albumin [2]
  fold lower affinity than SA1_S30K: 2 fold
Human serum albumin [3]
  koff: 0.00222 s⁻¹ and 0.00199 s⁻¹
Human serum albumin [4]
  koff: 0.000972 s⁻¹ and 0.00119 s⁻¹
Human serum albumin [5]
  koff: 0.00022 s⁻¹
Dog serum albumin
  Kd: 126 nM
  koff: 0.0158 s⁻¹
  kon: 123000 M⁻¹ s⁻¹
Horse serum albumin
  Kd: 121 nM
  koff: 0.00483 s⁻¹
  kon: 52100 M⁻¹ s⁻¹
Bovine serum albumin
  binding result: no binding
Rabbit serum albumin
  Kd: 600 nM
Pig serum albumin
  binding result: no binding (tested: 800 nM (highest concentration))
Cat serum albumin
  binding result: no binding (tested: 800 nM (highest concentration))
[6]
  Kd: 0.37 nM
Mouse serum albumin [7]
  Kd: 0.66 nM
Rat serum albumin [8]
  Kd: 0.45 nM
Human serum albumin [9]
  Kd: 0.9 nM
Human serum albumin [10]
  Kd: 1.15 nM

B2: SA1-biotinylated (VHH)
VHH: B1 VHH
modifications: labeled with NHS-PEG4-Biotin at a 5/1 molar ratio of biotin/VHH; labelled residues not determined
notes: also called biotinylated SA1
Human serum albumin [5]
  koff: 0.000166 s⁻¹
Human serum albumin [10]
  Kd: 1.97 nM

B3: SA1_S30K humanized variant 2 VHH (VHH)
VHH: B1 VHH with Q1E, A14P, S30K, A75S, H80Y, Q119L
notes: also called h2
[11]
  Kd: 0.5 nM
Human serum albumin [12]
  Kd: 1.53 nM

B4: SA1_S30K VHH (VHH)
VHH: B1 VHH with S30K
notes: Made in E. coli WK6 periplasm; also called SA1_S3OK; SA1_S30K mutant variant
Human serum albumin [3]
  Response: 0.25 nm
  koff: 0.00141 s⁻¹
Human serum albumin [4]
  Response: 0.438 nm
  koff: 0.00181 s⁻¹
[11]
  Kd: 0.57 nM
Human serum albumin [12]
  Kd: 1.28 nM
Human serum albumin [5]
  koff: 0.000203 s⁻¹
Dog serum albumin
  Kd: 160 nM
  koff: 0.0181 s⁻¹
  kon: 166000 M⁻¹ s⁻¹
Horse serum albumin
  Kd: 201 nM
  koff: 0.0103 s⁻¹
  kon: 59100 M⁻¹ s⁻¹
Bovine serum albumin
  binding result: no binding
Pig serum albumin
  binding result: no binding (tested: 800 nM (highest concentration))
Cat serum albumin
  binding result: no binding (tested: 800 nM (highest concentration))
[6]
  Kd: 0.38 nM
Mouse serum albumin [7]
  Kd: 0.29 nM
Rat serum albumin [8]
  Kd: 0.02 nM
Human serum albumin [9]
  Kd: 0.91 nM
Human serum albumin [10]
  Kd: 0.825 nM

B5: SA1_S30K humanized variant 4 VHH (VHH)
VHH: B1 VHH with Q1E, A14P, S30K, A75S, H80Y, T85S, Q119L
notes: also called h4
[11]
  Kd: 0.32 nM
Human serum albumin [12]
  Kd: 2.11 nM

B6: SA1_S30K humanized variant 3 VHH (VHH)
VHH: B1 VHH with Q1E, A14P, S30K, A75S, T85S, Q119L
notes: also called h3
[11]
  Kd: 0.29 nM
Human serum albumin [12]
  Kd: 1.64 nM

B7: SA1_S30K-biotinylated (VHH)
VHH: B1 VHH with S30K
modifications: labeled with NHS-PEG4-Biotin at a 5/1 molar ratio of biotin/VHH; the filing says the higher signal is likely related to the additional lysine at position 30; labelled residues not determined
notes: also called biotinylated SA1_S30K VHH
Human serum albumin [5]
  koff: 0.000187 s⁻¹
Human serum albumin [13]
  fold change in KD or kon or koff against the unbiotinylated VHH: < 2 fold
Human serum albumin [10]
  Kd: 1.49 nM

B8: SA1_S30K humanized variant 1 VHH (VHH)
VHH: B1 VHH with Q1E, A14P, S30K, A75S, Q119L
notes: also called h1
[11]
  Kd: 0.36 nM
Human serum albumin [12]
  Kd: 1.33 nM

B9: VHH-GFP-SA1_S30K (bispecific antibody)
chain: QVQLQESGGALVQPGGSLRLSCAASGFPVNRYSMRWYRQAPGKEREWVAGMSSAGDRSSYEDSVKGRFTISRDDARNTVYLQMNSLKPEDTAVYYCNVNVGFEYWGQGTQVTVSSGGSGGSGGSGGSGGSGGSGGSGGSGGSGGSGGSGGSGGSGGSGGSGGSGGSGGSGGSGGSQVQLQESGGGLVQAGGSLRLSCAASGRNIKEYVMGWFRQAPGKEREFVAAISWSAGNIYYADSVKGRFTISRDNAKNTVHLQMNTLRPEDTAVYYCAAGRYSAWYVAAYEYDYWGQGTQVTVSS
notes: also called VHH-GFP-SA26
Human serum albumin [14]
  Kd: 5 nM
